# ± gives the uncertainty stated by the source.
# Experiment: self-splicing fitness, log relative to wild type (ln ratio); higher = more splicing; Tetrahymena group I intron in knt gene, E. coli kanamycin selection, DiMSum; sequences stand for … in CUCUCU…GGAGGGAAAAGUUAUCAGGCAUGCACCUGGUAGCUAGUCUUUAAACCAAUAGAUUGCAUCGGUUUAAAAGGCAAGACCGUCAAAUUGCGGGAAAGGGGUCAACAGCCGUUCAGUACCAAGUCUCAGGGGAAACUUUGAGAUGGCCUUGCAAAGGGUAUGGUAAUAAGCUGACGGACAUGGUCCUAACCACGCAGCCAAGUCCUAAGUCAACAGAUCUUCUGUUGAUAUGGAUGCAGUUCACAGACUAAAUGUCGGUCGGGGAAGAUGUAUUCUUCUCAUAAGAUAUAGUCGGACCUCUCCUUAAUGGGAGCUAGCGGAUGAAGUGAUGCAACACUGGAGCCGCUGGGAACUAAUUUGUAUGCGAAAGUAUAUUGAUUAGUUUUGGAGUACUCGUGGUCG
# Method in brief: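 DiMSum derived fitness as the error-weighted combination of fold changes across replicates, kanamycin versus no kanamycin, normalised to wild type. E. coli BL21(DE3) held the library, which randomised all eight P1ex-region intron nucleotides within the knt kanamycin-resistance gene on pET-22b(+). Six replicate transformations grew overnight at 37°C or 30°C on LB agar with or without 25 μg/mL kanamycin, also containing 100 μg/mL carbenicillin, 50 μM IPTG and 0.2% rhamnose, and pooled colonies were amplicon-sequenced on an Illumina HiSeq 2500.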
Sequence,self-splicing fitness (ln) (30 °C),self-splicing fitness (ln) (37 °C)
UUUGAGCAAUAUUACGGCGC,-2.21 ± 0.35,
UUUGAGCAAUAUUACGGGGU,,-2.11 ± 0.26
UUUGAGCAAUAUUACGGUCA,-1.47 ± 0.28,-3.07 ± 0.4
UUUGAGCAAUAUUACGGUCG,-3.78 ± 0.21,-1.73 ± 0.19
UUUGAGCAAUAUUACGUCGG,-3.06 ± 0.21,-1.28 ± 0.18
UUUGAGCAAUAUUACGUCUU,-3.77 ± 0.32,-3.16 ± 0.43
UUUGAGCAAUAUUACGUUGG,-3.37 ± 0.28,-2.26 ± 0.26
UUUGAGCAAUAUUACGUUUU,-3.55 ± 0.19,-2.65 ± 0.17
UUUUAGCAAUAUUACGACCA,-0.399 ± 0.34,-0.577 ± 0.37
UUUUAGCAAUAUUACGACCG,1.81 ± 0.28,-1.19 ± 0.4
UUUUAGCAAUAUUACGAGUG,-1.75 ± 0.13,-1.26 ± 0.13
UUUUAGCAAUAUUACGAGUU,,-0.193 ± 0.24
UUUUAGCAAUAUUACGAUAG,-0.792 ± 0.26,-0.639 ± 0.46
UUUUAGCAAUAUUACGAUCU,-0.719 ± 0.13,-0.72 ± 0.15
UUUUAGCAAUAUUACGCACU,-0.447 ± 0.12,-0.218 ± 0.15
UUUUAGCAAUAUUACGCCAG,-2.13 ± 0.47,
UUUUAGCAAUAUUACGCCCG,-0.629 ± 0.33,
UUUUAGCAAUAUUACGCCUA,-1 ± 0.2,-0.553 ± 0.22
UUUUAGCAAUAUUACGCGUG,-0.683 ± 0.088,-0.0858 ± 0.096
UUUUAGCAAUAUUACGCUUA,-1.1 ± 0.16,-0.69 ± 0.15
UUUUAGCAAUAUUACGGCUG,-0.732 ± 0.48,-0.495 ± 0.38
UUUUAGCAAUAUUACGGGGA,-1.56 ± 0.16,-0.366 ± 0.14
UUUUAGCAAUAUUACGGUUU,-3.26 ± 0.47,-0.0249 ± 0.25
UUUUAGCAAUAUUACGUAGU,-1.9 ± 0.37,
UUUUAGCAAUAUUACGUAUA,-2.59 ± 0.42,
UUUUAGCAAUAUUACGUGCG,-1.42 ± 0.17,-0.84 ± 0.13
UUUUAGCAAUAUUACGUGCU,-2.43 ± 0.47,-0.459 ± 0.22

# Reference: the supplement of paper PMC7877785
